Legend:
[1] = molecular target: GNAQ^R183Q (human GNAQ α-subunit, R183Q mutant) (human) (UniProt P50148); experiment: cell-based or functional assay
[2] = molecular target: GNAQ^Q209L (human GNAQ α-subunit, Q209L mutant) (human) (UniProt P50148); experiment: cell-based or functional assay
[3] = molecular target: GNAQ^Q209L/P (endogenous, in three human UVM cell lines) (human) (UniProt P50148); experiment: cell-based or functional assay
[4] = system: human Mel202 uveal melanoma xenografts; experiment: In vivo anti-tumor activity, xenografts in SCID mice; settings: MEK162 10 mg/kg P.O. b.i.d.; YM-254890 2.5 mg/kg i.p. q.d.; over 20 days; single agents vs vehicle, combination vs vehicle and single agents
Method: To evaluate the effect of YM-254890 and binimetinib (MEK162) in vivo, Mel202 uveal melanoma xenografts were established in SCID mice, and the mice were treated with vehicle only, 10 mg/kg MEK162 (P.O., b.i.d.), YM-254890 (2.5 mg/kg i.p., q.d.) or a combination of MEK162 and YM-254890. Tumor volumes were measured over 20 days.

Sequence of GNAQ^R183Q (human GNAQ α-subunit, R183Q mutant) (human) (P50148 whole entry R183Q): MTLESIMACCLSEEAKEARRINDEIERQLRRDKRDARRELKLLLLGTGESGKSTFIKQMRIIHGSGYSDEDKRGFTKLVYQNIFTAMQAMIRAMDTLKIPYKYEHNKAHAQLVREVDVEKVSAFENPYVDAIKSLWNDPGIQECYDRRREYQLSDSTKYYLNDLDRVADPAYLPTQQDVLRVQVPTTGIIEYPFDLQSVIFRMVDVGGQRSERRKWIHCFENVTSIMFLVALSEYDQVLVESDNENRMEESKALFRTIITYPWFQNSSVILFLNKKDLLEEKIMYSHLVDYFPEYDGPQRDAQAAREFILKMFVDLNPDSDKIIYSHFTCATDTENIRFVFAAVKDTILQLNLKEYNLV
Sequence of GNAQ^Q209L (human GNAQ α-subunit, Q209L mutant) (human) (P50148 whole entry Q209L): as the sequence (P50148 whole entry R183Q) above, with Q183R, Q209L counted along it

Row | IP1 accumulation after 24-hour treatment with variable doses of YM, transfected HEK293T cells (fold less sensitive) [1] | IP1 accumulation, mutant-transformed melan-a cells, 24-hour treatment (fold less sensitive) [1] | IP1 accumulation, mutant-transformed melan-a cells, 24-hour treatment (fold less sensitive) [2] | IC50 of cell proliferation, human UVM cell lines (CellTiter-glo 2.0, 5 days) [3] | Compound | tumor volume [4]
1 | 20 | 10 | 10 | 100 nM | YM-254890 (peptide) | 
2 |  |  |  |  | Cn1cnc2c(F)c(Nc3ccc(Br)cc3F)c(C(=O)NOCCO)cc21 [MEK162, binimetinib] | moderate reduction
